{"source": "a protein production outcome set (Wang et al. 2014)", "assay": "label from the status in PepcDB records"}
{"sequence": "MKPLRTRFLRWRGAAAGGLLAGALLASPAWAAKQADWWVYVHNDKARDIGALLAAGADPNVRYDNGQPAIMRAVVDNAWEVFDVLAANRRTDLNAENPAGETPLMYLAVAGQTERAQALIARGAQVNRLGWTPLHYAASKGRLETARMLLGKQALVNAPSPDGTTPLMMAAYSGDRRMVQLLLDAGADITTRNLKGMSAADWAAFGKSEALARELKPMIARAEAERQARHGAVATSKLAPAAETPPTAQPAAASAAASQPGEGRSLSGVSGVRLNSYD", "values": [{"measurement": "protein production", "result": "failed"}]}
{"sequence": "MSLDQIKIAYIGGGSQGWARSLMSDLSIDERMSGTVALYDLDFEAAQKNEVIGNHSGNGRWRYEAVSTLKKALSAADIVIISILPGSLDDMEVDVHLPERCGIYQSVGDTVGPGGIIRGLRAVPIFAEIARAIRDYAPESWVINYTNPMSVCTRVLYKVFPGIKAIGCCHEVFGTQKLLAEMVTERLGIEVPRREDIRVNVLGINHFTWITKASYRHIDLLPIFREFSAHYGESGYELEGECWRDSVFCSAHRVAFDLFETYGAIPAAGDRHLAEFLPGPYLKQPEVWKFHLTPISFRKQDRAEKRQETERLIVQQRGVAEKASGEEGVNIIAALLGLGELVTNVNMPNQGQVLNLPIQAIVETNAFITRNRVQPILSGALPKGVEMLAARHISNQEAVADAGLTKDTGLAFQAFLNDPLVQIDRSDAEQLFNDMLQCIMQSEGHHHHHH", "values": [{"measurement": "protein production", "result": "not failed"}]}
{"sequence": "MLKVLIQTLILGVLLGASAARAELPADYKVVLLTENFPPFNMAVDDKNFARDDGIDGISADIVREMFRRAGIGYSLSLRFPWDRLYRLTLDKPGYGLFSMTYTPERVPQFKWVGPLADTSWVLLAPAGSKIAVKNLKDAARYKLGAYKNDAVSQHLEAQGIPVINALRDQENVKKLTGGQIDLWATTDPVGRYLAKQEGVSGLQTVLRFNEAKLYLALNKDTPDEVVERLQKALEQMRQEGFVDEAVANYL", "values": [{"measurement": "protein production", "result": "failed"}]}
{"sequence": "EERRVAYPVLRELTERTGETSALMVWNGNESMCVEQIPSRHQVKHLAPLGARYNEALSSSVQVFLASENEDRVRQLLRSGSITLTGVDEDAVEAYLLRLKESMERGWAVNFGETSIEEVGVASPVYDHRGNMVASVLIPAPKFRVSQDTLNSLGEACAAAAAKVTTRLGGRAPH", "values": [{"measurement": "protein production", "result": "not failed"}]}
{"sequence": "MISRNLKIYFRDRTAVFMSLLTVLIIIGLYAIFLGNNMEEMFKQASGKTVGIQELVNTWVIAGILSITPVTVSLAVFSLKVHDEELSIARSFAITSASRWRIVISYIVSGLVASFLLSVITLFVGEMYIWLTGGEFLPFESWIRLIGIILINVLCCSSIMFFIASLVKKASAFSSVSTIVGTVIGFIAGIYLPIGSLPAAVQTAMKCFPFTYGASTIREIMTKEPLKEVFAGNTGAMDATKEMIGITIYWGDKTVTTGLSLLILSAFAVVFGVLSVILMKRQTK", "values": [{"measurement": "protein production", "result": "failed"}]}
{"sequence": "MSPFDTPRRLVAEALGTALLLAVVVGSGIMGERLSDGNIAIALLGNTLATGAALVVLIWVFGPISGAHFNPAVTLVAALRRELPLTLALAYPLAQILGGIAGVWTAHAMFGEPILQVSTKLRSGGDQAFAEVVATFGLLATILGVSRFRPESTPMAVGLYITAAYWFTASTSFANPAVTVARSLSDSFAGIAPASAPAFILAQLVGALSAAALFGWLLKTDTSR", "values": [{"measurement": "protein production", "result": "failed"}]}
{"sequence": "MFMGKLPHQADLIGALIEAAGANGIRAGAIQVIGALQGAKLGFYDQWSKSYRELPFAKPLEIVSGLGNISLRDGRPFVHLHLSISDEEGKVFGGHALEGCTIFAAEYAIMPLPGSAPVRVFDETTGLFLWEREQYPASGQKGLSPELERALLNPLEHHHHHH", "values": [{"measurement": "protein production", "result": "not failed"}]}
{"sequence": "MTKNTRFSPEVRQRAVRMVLESQGEYDSQWATICSIAPKIGCTPETLRVWVRQHERDTGGGDGGLTTAERQRLKEPERENRELRRSNDILRQASAYFAKAEFDRLWKK", "values": [{"measurement": "protein production", "result": "failed"}]}
{"sequence": "MMKRARIIYNPTSGRELFKKSLPEVLQKLEQAGYEASCHATTGPGDATVAARQAVERKFDVVIAAGGDGTLNEVVNGLVGHEFRPKFGIIPVGTTNDFARAIGVPRSIEEAADIICEGKTVPLDLGRANDTYFINIAGGGRITELTYEVPSKLKTVLGQLAYYLKGIEMLPSLHPTYVEIEYDGKLLQEEITMFLITNTRSVGGFEKVAPYASINDGLFDLLVLKKGSIADLIKAATQAQRGEHINNPKVLYTQANRIKVHSPDKLMINLDGEYGGDAPMEFENMYHCLELFVPEHQEDAL", "values": [{"measurement": "protein production", "result": "failed"}]}
{"sequence": "MSTSEDTLRTSPDTFDADSVTSKGAPQEHARQVSGMFGRIARWYDLLNHVLSGGLDLYWRYRLVRQVVPGPTGRVLDLAAGTLDVAREIHRQHPGMRVPALDFCEAMLRAGQPKLVDGVQDVIWPAVADGRRLPLADASVDCVTIAFGIRNIVPRREAFEEMLRVLVPGGRACILEFGTGKTPVWKGLYNFYLNTLLPLVGRCVSGDAGAYRYLADTIMSFPDADALAAEMHDAGFTRVYHLPLTSGIVRLHVGEKPL", "values": [{"measurement": "protein production", "result": "failed"}]}
{"sequence": "SNEELETAKEEMQSVNEELQTINSELHGKNELLLQANNDLQNLLDNTQIATIFLDDDLTVRNFTPAAREVFSLRDGDRGRPVTEITSLLSYDKLCEDVRTVQRTLGVVESQLDLEDESATYIMRIRPYRTVANVISGVVITFSNITEQKQQHDHLQVLMGELQHRTNNVFAVILAIARQTVRNS", "values": [{"measurement": "protein production", "result": "failed"}]}
{"sequence": "MNVAILLAAGKGERMSENVPKQFLEIEGRMLFEYPLSTFLKSEAIDGVVIVTRREWFEVVEKRVFHEKVLGIVEGGDTRSQSVRSALEFLEKFSPSYVLVHDSARPFLRKKHVSEVLRRARETGAATLALKNSDALVRVENDRIEYIPRKGVYRILTPQAFSYEILKKAHENGGEWADDTEPVQKLGVKIALVEGDPLCFKVTFKEDLELARIIAREWERIP", "values": [{"measurement": "protein production", "result": "not failed"}]}
{"sequence": "MAKDTDIRSRMNRIEEIIDQLDADEVSLDEGSELYEEGQELLTEIRERLHEGQGEVIEIK", "values": [{"measurement": "protein production", "result": "not failed"}]}
{"sequence": "MTRSQNVLAGLLLAGLLAPHAVSAEGYQTPPPELAALVDAPRTPLQSLNPQGDAVLQTHRPGLPAIADVAQPELKLAGLRLNPRMRAASRFDFGSALTLLDVKSGKSRPVTGLPARPRIADNAWSPDGKQVALSLWGDRGVELWLLDAASARVRRLGDFHLNASSGRGFAWMGAQLLVKLLPAGQGPAPEKPSTPTGPNIQQSAGGALSQTRTYPDLLKTPYDADLLDYELNSQLALVDLSGRTKLIGKPDRYLSVQASPDRRYLLATKLQRPYSTLVPLNRFPRRIEVLNLQGDSVHLVAQRPLLERMPSGNDAVETGPREVQWRTDAPATLFWAEAQDGGDPSTPAKARDALYLLPAPFQQPPLKLQELASRFAGIQWGRGDLALVSEYWWKTRDLKVWRVRPAEPDHAPTLLNRRSSEDRYADPGSPAMVSNADGLPVLQTSPDGGSLYLLGEGASPEGDRPFIDQLNLADNKATRLWRSQAPWYEAPMAVLDGGKTALLSREQADAPPNLYLKTLGQGGGLKQLTFFPHPTPQLKNVQKRQLRYKRADGIDLTATLYLPPGYDAKRDGPLPMLMWAYPAEFKSADAASQVTDSPYRFNRVGYWGPEALLARGYVVLDDPSMPIVGAGKQEPNDTYLPQLKMDAQAAVDEVVRLGVADRDRIAIGGHSYGAFMTANLLAHTRLFRAGIARSGAYNRTLTPFGFQSEERDFWQAKDVYQAMSPFNYAEQIKDALLLIHGEADNNPGTFPIQSERMYQALQGLGGTVRLAMLPAESHGYRARESILHMLWEEDRWLDQFVKRAKPRAQGTAAR", "values": [{"measurement": "protein production", "result": "failed"}]}
{"sequence": "MEIASQEDHDMPIPLNTTFGGGGSHGHMIHHHDHHAANSAPPTHNNNNTTQPPPMPLHGNGHGNNYDHHHHQDPHHVGYNAIIKKPMIKYKECLKNHAAAMGGNATDGCGEFMPSGEDGSIEALTCSACNCHRNFHRKEVEGELAATAMSPYHQHPPHRKLMLNHQKIRSAMPHQMIMPIGVSNYRYMHNNSESEDFMEEDGVTTASRSLPNLPYNQKKRFRTKFTPEQKEKMLSFAEKVGWKIQRQEDCVVQRFCEEIGVKRRVLKVWMHNNKIHFSKKNNINLEDNDNEKINNLNNVDLSGNNDMTKIVP", "values": [{"measurement": "protein production", "result": "failed"}]}
{"sequence": "MAVEVVYRSSRDPERLFMDKAEADRHDKMLELAERLAEVLHKAVPSLTEQQVEEAGIYMAKNRDVFARAFKSQPDALAELLEGTAAE", "values": [{"measurement": "protein production", "result": "not failed"}]}
{"sequence": "MGGAGLDNAQNVRNQTQNQTKPIHVSDRNEAFNRHNENEQFGYVRYQKEQFDGEQQKTPVMNREETAHMISSLTVQLPHIQDAATLVTDREALVVYKTDSKNRELTADQVKKTAASVIPRYYHVYISDNPNHMQSVENYSNLGSGSRDIREIMSGTIQEMKTSPQGSPVSENENANGETRQDMKIDRNDKNARLEHHHHHH", "values": [{"measurement": "protein production", "result": "not failed"}]}
